Results taken from the supplement of paper PMC10567573.
± gives the standard deviation.

Experiment: protein stability index of a GFP-peptide fusion (GPS, HEK-293T) (PSI 1-6); higher = more stable
[1] = treatment: MLN4924 1 uM, 8 h, c terminus: a fixed tail appended
[2] = treatment: DMSO, c terminus: a fixed tail appended
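Also: 24-mer peptide tiles fused after GFP, lentivirally expressed, FACS-sorted into six equal bins by GFP/DsRed ratio, decoded by Illumina sequencing, PSI is the read-weighted mean bin number.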

Sequence	protein stability index [1]	protein stability index [2]	protein stability index (treatment: DMSO, c terminus: native)	protein stability index (treatment: MLN4924 1 uM, 8 h, c terminus: native)
LKECLKKQLEFCFSRENLSKDLYL [LARP4]	2.67 ± 0.89			
AANKGEEKKDDENIPMETEETHLE [SMARCE1]	5.34 ± 0.42	5.64 ± 0.33		
PKTVQQPTESEPVTINIQDLLSCS [MATN2]	4.32 ± 0.16	4.35 ± 0.17		
KMKYKGQYRPSDLLCPETYVWVPI [ATE1]	2.03 ± 0.26	2.01 ± 0.39		
PQDQAGPGGAPRVASRNLFPKDTL [CLPTM1]	4.61 ± 0.28	4.41 ± 0.36		
SCRELLRIADKFTQHNFQEVMESE [KLHL20]	2.19 ± 0.06	2.17 ± 0.14		
NAEMVQQTTYLEDRPMFMLQCAME [LOXL2]	3 ± 0.1	3.11 ± 0.25		
WPRNPPSRLLGAAAGQRSRPSTYY [DNAJC4]	3.67 ± 0.4	3.24 ± 0.25		
NPFKERICRVFSTSPAKDSLSFED [CIB1]	2.75 ± 0.2	2.77 ± 0.21		
HTSTARLLLHRGAGKEAMTSDGYT [RIPK4]	3.75 ± 0.29	3.61 ± 0.22		
SYSREHEGRLRYPSRREPPPRRSR [CLK3]	5.01 ± 0.48	5.28 ± 0.2		
YGETCFPKGRFERKRNPSRKKQHI [ZNF24]	3.24 ± 0.6	2.93 ± 0.62		
IHSIALSTFASLIGPFGGFFASGF [CDS2]	2.99 ± 0.16	3.12 ± 0.2		
MQEKNPVHVIGVEEPSVGASMLFD [ZNF8]	4.34 ± 0.2	4.41 ± 0.094		
TSIGMPSLMYRSPPGAEEPQAPPA [RETREG3]	4.92 ± 0.07	5.12 ± 0.12		
RIYVLGGGTSWTAYSLNKIHAYNL [KLHDC10]	2.61 ± 0.67	2.42 ± 0.41		
SLSPSPLGSSAASTALERPSFLSQ [FCHO1]	3.98 ± 0.19	4.09 ± 0.25		
TYWQCGQYLGVGPGAHGRFMPQGA [RSAD1]	2.65 ± 0.49	2.27 ± 0.26		
EELTYIIKQDINSLNKQIAQLQDF [STX5]	2.85 ± 0.26	2.61 ± 0.21		
STSLPDPGDFDRNVPRICGVCGDR [VDR]	4.56 ± 0.55	4.6 ± 0.2		
PLTSTQGLEHAAAGGSSGTTARER [FBF1]	5.33 ± 0.3	5.36 ± 0.24		
SQAPVNKPKKKKEKKEKEKKKKDK [BRD3]	5.3 ± 0.32	5.32 ± 0.32		

Sequence	protein stability index [1]	protein stability index [2]	protein stability index (treatment: DMSO, c terminus: native)	protein stability index (treatment: MLN4924 1 uM, 8 h, c terminus: native)
PLLCPSYQSYFKTIEELQQKILCS [KRT33B]	2.56 ± 0.17	2.56 ± 0.3		
TPNASSPGNPTALANGTVQAPKQK [LPCAT4]	5.43 ± 0.15	5.31 ± 0.13		
LVFPSSSSSSSSQAPGQPPGNQAE [ZBTB22]	4.71 ± 0.067	5.06 ± 0.2		
QLLLQFERLVVLDYIIRNTDRGND [PI4K2A]	2.64 ± 0.36	2.98 ± 0.47		
SSTCGQLASYPLALVRTRMQAQAS [SLC25A25]	3 ± 0.1	2.74 ± 0.23		
LARKIASRNEFDRTIAETEAAYLK [SSNA1]	3.74 ± 0.3	3.57 ± 0.23		
DLRSGTLYSLTLYGLRGPHKADSI [TNXB]	1.95 ± 0.27	2.16 ± 0.48		
LVCTFSSQVCRVAYEIMQTLHPDA [FUT8]	3.22 ± 0.55	2.95 ± 0.12		
VAIAQKFAALRASLVAPLLLELAG [MYORG]	2.68 ± 1.1	2.9 ± 0.76		
AHLPKAQLSGYAVEATRNQSQLQR [FBF1]	4.08 ± 0.2	4.21 ± 0.044		
YPIYVIPEPPPVSFQPYHPLHFRG [TENT5D]	2.32 ± 0.37	2.35 ± 0.28		
RKLSQGILIIRFEMPYNIWCDGCK [YJU2B]	3.3 ± 0.79	2.57 ± 0.62		
NTNSDPLDPSFPVEFVRHGDIIRL [POMT2]	2.86 ± 0.28	2.69 ± 0.38		
NSVTAGDYSRPLHISTFINELDSG [TSN]	3.71 ± 0.18	3.54 ± 0.19		
APEFIKVRENLRRIATLTSEEREL [FAM107A]	4.62 ± 0.16	4.48 ± 0.31		
EEEEDDLSELPPLEDMGQPPAEEA [FKBP8]	5.5 ± 0.38	5.63 ± 0.2		
INYLGAESLRPLVQTPPGGSEVVP [IKZF1]	3.88 ± 0.28	4.07 ± 0.2		
VRMSADAMLKALLGSKHKVCMDLR [TNNI2]	2.1 ± 0.3	2.25 ± 0.45		
CLMLLMGTVHCQIVSTQITRPSGN [PHTF1]	2.84 ± 0.47	3.12 ± 0.47		
TKSHSFRAMCQNGKLVYPSCEEK [CFHR2]			3.813 ± 0.01	4.09 ± 0.12
RQAELLEKRLQEIEELEREAERKI [SRPK2]	5.18 ± 0.14	5.13 ± 0.32		
VVDRIQSSGKNVTLLVCGKKAYDY [PDZK1]	2.54 ± 0.31	2.42 ± 0.5		

Sequence	protein stability index [1]	protein stability index [2]	protein stability index (treatment: DMSO, c terminus: native)	protein stability index (treatment: MLN4924 1 uM, 8 h, c terminus: native)
KKYVKGDVSLCRWHPKPYCQALPY [FBXO34]	2.05 ± 0.28	2.31 ± 0.45		
GDVAIKLKFLEENKIKVMHKQLLL [ARFIP2]	2.12 ± 0.26	2.25 ± 0.31		
GNATLLRIIYQNKCMRNGPNALIA [EDNRA]	2.51 ± 0.32	2.66 ± 0.79		
GFPRVAPEDEVIVNQYVIRPGPSA [RNF208]	3.67 ± 0.13	3.66 ± 0.25		
KVTLRIRNVRFSDEGGFTCFFRDH [MOG]	2.21 ± 0.14	2.29 ± 0.5		
EVTDKEQEFAARAAKQLEYQQLED [EPB41L3]	5.62 ± 0.33	5.65 ± 0.27		
VADIDGQYAMTRAQRVRAAMFPET [CTNNB1]	3.6 ± 0.24	3.65 ± 0.25		
AQVLMLGQILELPWKEETFLVLQS [FANCE]	2.65 ± 0.67	2.47 ± 0.33		
SSNVSLSLFVLDQNDNAPEILYPA [PCDHGA10]	2.38 ± 0.29	2.48 ± 0.13		
CQQNMIQELIETNQQLRNELQLEQ [CEP70]	3.85 ± 0.51	4.12 ± 0.26		
MSAAQGWDRNRRRGGGAAGAGGGG [KLHDC10]	4.92 ± 0.25	4.97 ± 0.27		
IMNIIDIVSILPYFITLGTDLAQQ [KCNA4]	2.95 ± 0.49	3.37 ± 0.44		
AVVASSVNSYYSSPAQQVPKNPAL [TOR1AIP2]	3.46 ± 0.18	3.51 ± 0.16		
CFQSCLCCCCYQSKSLMTSVPMNG [EDNRA]	2.41 ± 0.18	2.31 ± 0.53		
YPPFWDEDQHRLYQQIKAGAYDFP [CAMK2D]	2.64 ± 0.25	2.56 ± 0.21		
IFNHERFFWHLTLPERRGTCADRD [CASP6]	2.93 ± 0.27	2.6 ± 0.21		
SSAASLIDFLRVVRNQQSLAVSNM [PTPN9]	2.1 ± 0.26	2.26 ± 0.43		
SKVLSLQDLCCRAVVSCTPVHLVD [RAB40B]	2.85 ± 0.32	3.01 ± 0.17		
VMSALWVSGLDSSYLREQMLNEPL [GAN]	2.29 ± 0.54	2.83 ± 0.24		
GAPTSLQTEPQDRSPAPMSCDKST [BCL2L11]	5.36 ± 0.1	5.36 ± 0.3		
PSGTPELEVPKPGQPSEPEHGPSP [CHIT1]	5.47 ± 0.18	5.52 ± 0.25		
